Test results published in patent publication US9897611B2, “Molecule library constructed on the basis of backbone structure of microprotein” (NATIONAL INSTITUTE OF ADVANCED INDUSTRIAL SCIENCE AND …, priority 2012, dated 2018).
Where two headings read alike, the source gives them in different places. Ends that are not written are not given here.

Legend:
[1] = tested on: human Fc region manufactured by Jackson ImmunoResearch Laboratories, Inc.; assay: SPR binding affinity analysis, peptide as analyte on immobilized human Fc region (Jackson ImmunoResearch)
From the text: A human Fc region manufactured by Jackson ImmunoResearch Laboratories, Inc. was immobilized onto a sensor chip CM5 (GE Healthcare Japan Corp.) by the amine coupling method using Amine Coupling Kit (GE Healthcare Japan Corp.).

human IgG Fc region = molecular target: T1, human IgG Fc region (Homo sapiens, UniProt P01857); assay: SPR binding affinity analysis on immobilized Fc region prepared by papain digestion of human monoclonal IgG
T1 construct: The Fc region was prepared by the papain digestion of a human monoclonal antibody IgG
Method: The Fc region was prepared by the papain digestion of a human monoclonal antibody IgG (Chugai Pharmaceutical Co., Ltd.) according to the instruction manual attached to Pierce® Fab Preparation Kit (Thermo Fisher Scientific Inc. Pierce) followed by purification by affinity chromatography using MabSelect SuRe (GE Healthcare Japan Corp.), HiTrap DEAE anion-exchange chromatography (GE Healthcare Japan Corp.), and gel filtration chromatography using Superdex 200 (GE Healthcare Japan Corp.).
The Fc region prepared in the section 1) of Example 2 was immobilized onto a sensor chip CM5 (GE Healthcare Japan Corp.) by the amine coupling method.
Subsequently, an example of binding affinity analysis by the surface plasmon resonance method is shown as to the functions of the thioredoxin fusion proteins with the prepared polypeptides. The analysis apparatus used was Biacore T100 (GE Healthcare Japan Corp.). […] The data was processed with Biacore T100 Evaluation Software (GE Healthcare Japan Corp.).
The assay employed Biacore T100 (GE Healthcare Japan Corp.).
Subsequently, the prepared 5 types of polypeptides were analyzed for their binding affinity by surface plasmon resonance. The assay employed Biacore T100 (GE Healthcare Japan Corp.).

[2] = alanine variants of p17_2, Fc region immobilized on CM5, read-out: KD (nM), binding dissociation constant of p17_2 variant
[3] = analyte on Fc region immobilized on CM5, HBS-T, 25° C., read-out: equilibrium dissociation constant KD

With “GVVRQWSGGGGSGGGGRSSIAYGGG [2A1Gly peptide, 2A1 peptide with the chignolin variant region replaced by a glycine-rich linker]” the “binding affinity relative to that of the 2A1 peptide” value ([1]; chignolin variant region replaced with glycine-rich linker) was 1/1000 and the Kd ([1]; peptide analyte, Fc immobilized on sensor chip CM5, HBS-T pH 7.4, 25° C., read-out: equilibrium dissociation constant KD) was 23000 nM.
In the case of “DAAWHLGELVWATYYDPETGTWLPDWQTMAQK [pep21 peptide]”, the “improvement in affinity compared with FcIII-Ala peptide” value (human IgG Fc region) is reported as “approximately 420 fold”.
Substance “p17_P46A: alanine variant of p17_2 polypeptide, SEQ ID NO: 60 (GPGISAFSPGRGVYDPETGTWYDAAWHLGELVWATYYDPETGTWEADWQRMLGQ; Selected sequence, p17_P46A)” has a Kd (human IgG Fc region; [2]) of 5.6 nM.
In the case of “p17_D47A: alanine variant of p17_2 polypeptide, SEQ ID NO: 61 (GPGISAFSPGRGVYDPETGTWYDAAWHLGELVWATYYDPETGTWEPAWQRMLGQ; Selected sequence, p17_D47A)”, the Kd (human IgG Fc region; [2]) is reported as 45 nM.
“DAAWHLGELVWATYYDPETGTWQPDWLYMTTR [pep14 peptide]” was tested, and the Kd (human IgG Fc region; [3]) was 120 nM.
Substance “DAAWHLGELVWAT [FcIII-Ala peptide, reference compound]” has a Kd (human IgG Fc region; Fc region immobilized on CM5, 0.78-100 μM peptide, read-out: equilibrium dissociation constant KD by Scatchard plot using equilibrium value) of 42000 nM.
“p17_W48A: alanine variant of p17_2 polypeptide, SEQ ID NO: 62 (GPGISAFSPGRGVYDPETGTWYDAAWHLGELVWATYYDPETGTWEPDAQRMLGQ; Selected sequence, p17_W48A)” was tested, and the Kd (human IgG Fc region; [2]) was 200 nM.
“p17_2: SEQ ID NO: 47; 54 residues, p17 with Gly, Pro, Gly at the N terminus, from protease cleavage of thioredoxin fusion (GPGISAFSPGRGVYDPETGTWYDAAWHLGELVWATYYDPETGTWEPDWQRMLGQ; Selected sequence, p17_2)” was tested, and the “improvement in affinity compared with FcIII-Ala peptide” value (human IgG Fc region) was “approximately 26000 fold”, the “improvement in binding affinity compared with pep24 peptide” value (human IgG Fc region) was 138 fold and the Kd (human IgG Fc region; [3]) was 1.6 nM.
“p17_R50A: alanine variant of p17_2 polypeptide, SEQ ID NO: 63 (GPGISAFSPGRGVYDPETGTWYDAAWHLGELVWATYYDPETGTWEPDWQAMLGQ; Selected sequence, p17_R50A)” gave a Kd (human IgG Fc region; [2]) of 7.8 nM.
